Experimental findings from patent publication US20200297818A1 (ZEALAND PHARMA A S, published 2020) are described below.

Test [1] concerns the target human glucagon-like peptide 1 receptor (GLP-1 R) (human, UniProt P43220 24-463). The test is described as follows: cell-based or functional assay.
Test [2] concerns the target T1, human GLP-2 receptor (hGLP2-R) (human, UniProt O95838 1-553).
T1 sequence (looked up): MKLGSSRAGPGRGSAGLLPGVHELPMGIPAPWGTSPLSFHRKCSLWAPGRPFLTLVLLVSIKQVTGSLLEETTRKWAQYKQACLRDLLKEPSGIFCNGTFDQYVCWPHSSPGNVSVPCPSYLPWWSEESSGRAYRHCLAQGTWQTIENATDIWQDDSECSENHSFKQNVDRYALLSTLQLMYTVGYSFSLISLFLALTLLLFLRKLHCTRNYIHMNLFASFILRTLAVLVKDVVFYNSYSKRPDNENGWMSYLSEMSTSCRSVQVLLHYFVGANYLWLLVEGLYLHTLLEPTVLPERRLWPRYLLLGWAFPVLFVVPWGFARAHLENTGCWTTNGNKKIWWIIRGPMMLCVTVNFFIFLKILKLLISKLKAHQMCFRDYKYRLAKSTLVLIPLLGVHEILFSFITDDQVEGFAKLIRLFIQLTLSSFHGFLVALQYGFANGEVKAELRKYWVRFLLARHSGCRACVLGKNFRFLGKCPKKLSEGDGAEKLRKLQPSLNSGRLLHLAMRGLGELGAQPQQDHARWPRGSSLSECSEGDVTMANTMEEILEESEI
The test is described as follows: cell-based or functional assay.

B1: Compound 28 (peptide)
peptide: HXEGSFTSELATILDXQAARDFIAWLILHKITD
HELM: PEPTIDE1{H.[Aib].E.G.S.F.T.S.E.L.A.T.I.L.D.K.Q.A.A.R.D.F.I.A.W.L.I.L.H.K.I.T.D}|PEPTIDE2{[O=C(O)CCCCCCCCCCCCCCCCC(=O)[*:2]].[gGlu]}$PEPTIDE1,PEPTIDE2,16:R3-2:R2$$$V2.0
SMILES: CC[C@H](C)[C@H](NC(=O)[C@H](Cc1ccccc1)NC(=O)[C@H](CC(=O)O)NC(=O)[C@H](CCCNC(=N)N)NC(=O)[C@H](C)NC(=O)[C@H](C)NC(=O)[C@H](CCC(N)=O)NC(=O)[C@H](CCCCNC(=O)CC[C@H](NC(=O)CCCCCCCCCCCCCCCCC(=O)O)C(=O)O)NC(=O)[C@H](CC(=O)O)NC(=O)[C@H](CC(C)C)NC(=O)[C@@H](NC(=O)[C@@H](NC(=O)[C@H](C)NC(=O)[C@H](CC(C)C)NC(=O)[C@H](CCC(=O)O)NC(=O)[C@H](CO)NC(=O)[C@@H](NC(=O)[C@H](Cc1ccccc1)NC(=O)[C@H](CO)NC(=O)CNC(=O)[C@H](CCC(=O)O)NC(=O)C(C)(C)NC(=O)[C@@H](N)Cc1c[nH]cn1)[C@@H](C)O)[C@@H](C)O)[C@@H](C)CC)C(=O)N[C@@H](C)C(=O)N[C@@H](Cc1c[nH]c2ccccc12)C(=O)N[C@@H](CC(C)C)C(=O)N[C@H](C(=O)N[C@@H](CC(C)C)C(=O)N[C@@H](Cc1c[nH]cn1)C(=O)N[C@@H](CCCCN)C(=O)N[C@H](C(=O)N[C@H](C(=O)N[C@@H](CC(=O)O)C(=O)O)[C@@H](C)O)[C@@H](C)CC)[C@@H](C)CC
As for B1, in test [1], the “EC50 GLP-1 (nM); cAMP response” value came to 0.36 nM. For the same molecule, the “EC50 GLP-2 (nM); cAMP response” value in test [2] is 0.51 nM.

B2: reference compound B (peptide)
peptide: HXEGSFSSELATILDXQAARDFIAWLIQHKITD
HELM: PEPTIDE1{H.[Aib].E.G.S.F.S.S.E.L.A.T.I.L.D.K.Q.A.A.R.D.F.I.A.W.L.I.Q.H.K.I.T.D}|PEPTIDE2{[O=C(O)CCCCCCCCCCCCCCCCC(=O)[*:2]].[gGlu]}$PEPTIDE1,PEPTIDE2,16:R3-2:R2$$$V2.0
SMILES: CC[C@H](C)[C@H](NC(=O)[C@H](Cc1ccccc1)NC(=O)[C@H](CC(=O)O)NC(=O)[C@H](CCCNC(=N)N)NC(=O)[C@H](C)NC(=O)[C@H](C)NC(=O)[C@H](CCC(N)=O)NC(=O)[C@H](CCCCNC(=O)CC[C@H](NC(=O)CCCCCCCCCCCCCCCCC(=O)O)C(=O)O)NC(=O)[C@H](CC(=O)O)NC(=O)[C@H](CC(C)C)NC(=O)[C@@H](NC(=O)[C@@H](NC(=O)[C@H](C)NC(=O)[C@H](CC(C)C)NC(=O)[C@H](CCC(=O)O)NC(=O)[C@H](CO)NC(=O)[C@H](CO)NC(=O)[C@H](Cc1ccccc1)NC(=O)[C@H](CO)NC(=O)CNC(=O)[C@H](CCC(=O)O)NC(=O)C(C)(C)NC(=O)[C@@H](N)Cc1c[nH]cn1)[C@@H](C)O)[C@@H](C)CC)C(=O)N[C@@H](C)C(=O)N[C@@H](Cc1c[nH]c2ccccc12)C(=O)N[C@@H](CC(C)C)C(=O)N[C@H](C(=O)N[C@@H](CCC(N)=O)C(=O)N[C@@H](Cc1c[nH]cn1)C(=O)N[C@@H](CCCCN)C(=O)N[C@H](C(=O)N[C@H](C(=O)N[C@@H](CC(=O)O)C(=O)O)[C@@H](C)O)[C@@H](C)CC)[C@@H](C)CC
In the case of B2, the “EC50 GLP-1 (nM); cAMP response” value in test [1] turned out to be 3.9 nM. Further, the “EC50 GLP-2 (nM); cAMP response” value in test [2] turned out to be 0.28 nM.

B3: Compound 30 (peptide)
peptide: HXEGSFTSELATILDXQAARDFIAWLIRHKITD
HELM: PEPTIDE1{H.[Aib].E.G.S.F.T.S.E.L.A.T.I.L.D.K.Q.A.A.R.D.F.I.A.W.L.I.R.H.K.I.T.D}|PEPTIDE2{[O=C(O)CCCCCCCCCCCCCCCCC(=O)[*:2]].[gGlu]}$PEPTIDE1,PEPTIDE2,16:R3-2:R2$$$V2.0
SMILES: CC[C@H](C)[C@H](NC(=O)[C@H](Cc1ccccc1)NC(=O)[C@H](CC(=O)O)NC(=O)[C@H](CCCNC(=N)N)NC(=O)[C@H](C)NC(=O)[C@H](C)NC(=O)[C@H](CCC(N)=O)NC(=O)[C@H](CCCCNC(=O)CC[C@H](NC(=O)CCCCCCCCCCCCCCCCC(=O)O)C(=O)O)NC(=O)[C@H](CC(=O)O)NC(=O)[C@H](CC(C)C)NC(=O)[C@@H](NC(=O)[C@@H](NC(=O)[C@H](C)NC(=O)[C@H](CC(C)C)NC(=O)[C@H](CCC(=O)O)NC(=O)[C@H](CO)NC(=O)[C@@H](NC(=O)[C@H](Cc1ccccc1)NC(=O)[C@H](CO)NC(=O)CNC(=O)[C@H](CCC(=O)O)NC(=O)C(C)(C)NC(=O)[C@@H](N)Cc1c[nH]cn1)[C@@H](C)O)[C@@H](C)O)[C@@H](C)CC)C(=O)N[C@@H](C)C(=O)N[C@@H](Cc1c[nH]c2ccccc12)C(=O)N[C@@H](CC(C)C)C(=O)N[C@H](C(=O)N[C@@H](CCCNC(=N)N)C(=O)N[C@@H](Cc1c[nH]cn1)C(=O)N[C@@H](CCCCN)C(=O)N[C@H](C(=O)N[C@H](C(=O)N[C@@H](CC(=O)O)C(=O)O)[C@@H](C)O)[C@@H](C)CC)[C@@H](C)CC
B3: the “EC50 GLP-1 (nM); cAMP response” value in test [1] came to 0.31 nM. Also, the “EC50 GLP-2 (nM); cAMP response” value in test [2] turned out to be 0.38 nM.

B4: Compound 29 (peptide)
peptide: HXEGSFTSELATILDXQAARDFIAWLIKHKITD
HELM: PEPTIDE1{H.[Aib].E.G.S.F.T.S.E.L.A.T.I.L.D.K.Q.A.A.R.D.F.I.A.W.L.I.K.H.K.I.T.D}|PEPTIDE2{[O=C(O)CCCCCCCCCCCCCCCCC(=O)[*:2]].[gGlu]}$PEPTIDE1,PEPTIDE2,16:R3-2:R2$$$V2.0
SMILES: CC[C@H](C)[C@H](NC(=O)[C@H](Cc1ccccc1)NC(=O)[C@H](CC(=O)O)NC(=O)[C@H](CCCNC(=N)N)NC(=O)[C@H](C)NC(=O)[C@H](C)NC(=O)[C@H](CCC(N)=O)NC(=O)[C@H](CCCCNC(=O)CC[C@H](NC(=O)CCCCCCCCCCCCCCCCC(=O)O)C(=O)O)NC(=O)[C@H](CC(=O)O)NC(=O)[C@H](CC(C)C)NC(=O)[C@@H](NC(=O)[C@@H](NC(=O)[C@H](C)NC(=O)[C@H](CC(C)C)NC(=O)[C@H](CCC(=O)O)NC(=O)[C@H](CO)NC(=O)[C@@H](NC(=O)[C@H](Cc1ccccc1)NC(=O)[C@H](CO)NC(=O)CNC(=O)[C@H](CCC(=O)O)NC(=O)C(C)(C)NC(=O)[C@@H](N)Cc1c[nH]cn1)[C@@H](C)O)[C@@H](C)O)[C@@H](C)CC)C(=O)N[C@@H](C)C(=O)N[C@@H](Cc1c[nH]c2ccccc12)C(=O)N[C@@H](CC(C)C)C(=O)N[C@H](C(=O)N[C@@H](CCCCN)C(=O)N[C@@H](Cc1c[nH]cn1)C(=O)N[C@@H](CCCCN)C(=O)N[C@H](C(=O)N[C@H](C(=O)N[C@@H](CC(=O)O)C(=O)O)[C@@H](C)O)[C@@H](C)CC)[C@@H](C)CC
For B4, the “EC50 GLP-1 (nM); cAMP response” value in test [1] was determined as 0.31 nM. In test [2], the “EC50 GLP-2 (nM); cAMP response” value came to 0.29 nM.

B5: Compound 31 (peptide)
peptide: HXEGSFTSELATILDXQAARDFIAWLISHKITD
HELM: PEPTIDE1{H.[Aib].E.G.S.F.T.S.E.L.A.T.I.L.D.K.Q.A.A.R.D.F.I.A.W.L.I.S.H.K.I.T.D}|PEPTIDE2{[O=C(O)CCCCCCCCCCCCCCCCC(=O)[*:2]].[gGlu]}$PEPTIDE1,PEPTIDE2,16:R3-2:R2$$$V2.0
SMILES: CC[C@H](C)[C@H](NC(=O)[C@H](Cc1ccccc1)NC(=O)[C@H](CC(=O)O)NC(=O)[C@H](CCCNC(=N)N)NC(=O)[C@H](C)NC(=O)[C@H](C)NC(=O)[C@H](CCC(N)=O)NC(=O)[C@H](CCCCNC(=O)CC[C@H](NC(=O)CCCCCCCCCCCCCCCCC(=O)O)C(=O)O)NC(=O)[C@H](CC(=O)O)NC(=O)[C@H](CC(C)C)NC(=O)[C@@H](NC(=O)[C@@H](NC(=O)[C@H](C)NC(=O)[C@H](CC(C)C)NC(=O)[C@H](CCC(=O)O)NC(=O)[C@H](CO)NC(=O)[C@@H](NC(=O)[C@H](Cc1ccccc1)NC(=O)[C@H](CO)NC(=O)CNC(=O)[C@H](CCC(=O)O)NC(=O)C(C)(C)NC(=O)[C@@H](N)Cc1c[nH]cn1)[C@@H](C)O)[C@@H](C)O)[C@@H](C)CC)C(=O)N[C@@H](C)C(=O)N[C@@H](Cc1c[nH]c2ccccc12)C(=O)N[C@@H](CC(C)C)C(=O)N[C@H](C(=O)N[C@@H](CO)C(=O)N[C@@H](Cc1c[nH]cn1)C(=O)N[C@@H](CCCCN)C(=O)N[C@H](C(=O)N[C@H](C(=O)N[C@@H](CC(=O)O)C(=O)O)[C@@H](C)O)[C@@H](C)CC)[C@@H](C)CC
Take B5: the “EC50 GLP-1 (nM); cAMP response” value in test [1] was 0.27 nM. The “EC50 GLP-2 (nM); cAMP response” value in test [2] was determined as 0.24 nM.
